{"source": "the supplement of paper PMC9170038", "system": "MS2 coat protein", "experiment": "apparent KD of MS2 coat protein; designed switch direction (-1 OFF switch, 1 ON switch): -1; higher = weaker reporter binding", "how_it_was_run": "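The reported apparent KD is a per-design median over clusters, from curve fits of normalised cluster fluorescence. Protein titrations used SNAP-549-labelled MS2 coat protein, doubled from 0.7 or 1.5 nM to 3 µM, in Tris-HCl pH 7.5 buffer with KCl, MgCl2, BSA, DTT, tRNA and Tween-20, with no input, 200 uM small-molecule ligand, or an oligonucleotide input. The RNA switches were transcribed on Illumina chips by stalled E. coli RNA polymerase.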", "key": {"[1]": {"conditions": "Eterna round: R95, input ligand: FMN 200 uM"}, "[2]": {"conditions": "Eterna round: R95, input ligand: microRNA oligo, concentration not stated"}, "[3]": {"conditions": "Eterna round: R95, input ligand: none"}, "[4]": {"conditions": "input ligand: microRNA oligo, concentration not stated"}}, "data": [{"sequence": "UUUAAUUUUUUUUUUUUACAAGCUUUUUGCUCGUCUUAUACAUGAGGAUCACCCAUGUGGGUGAGGAGUAAAUUAUC [JMF 61] (puzzle: Sensor v3, turn-off variant 2)", "values": [{"measurement": "apparent KD of MS2 coat protein", "setting": "[1]", "result": 37.9, "unit": "nM"}, {"measurement": "apparent KD of MS2 coat protein", "setting": "[2]", "result": 19.1, "unit": "nM"}, {"measurement": "apparent KD of MS2 coat protein", "setting": "[3]", "result": 66.7, "unit": "nM"}]}, {"sequence": "GCGGCGUAUGUAGGAUAUCGGUCAGUUUCUGAUCGAGAAGGACAUGAGGAUCACCCAUGUAAAUUACCGACUUUGUCGGGCCGC [JL ENG1 3.66] (Eterna round: R96, puzzle: Exclusion NG 1)", "values": [{"measurement": "apparent KD of MS2 coat protein", "setting": "input ligand: FMN 200 uM", "result": 20.4, "unit": "nM"}, {"measurement": "apparent KD of MS2 coat protein", "setting": "[4]", "result": 13.5, "unit": "nM"}, {"measurement": "apparent KD of MS2 coat protein", "setting": "input ligand: none", "result": 17.7, "unit": "nM"}]}, {"sequence": "CUGCUCCGUGUAGGAUAUCGCCGCACCACCCGGCGAGAAGGACAUGAGGAUCACCCAUGUAUGUUAUUAUCACGUGUGGCGCGC [Design 40] (Eterna round: R96, puzzle: Exclusion NG 1)", "values": [{"measurement": "apparent KD of MS2 coat protein", "setting": "input ligand: FMN 200 uM", "result": 17.6, "unit": "nM"}, {"measurement": "apparent KD of MS2 coat protein", "setting": "[4]", "result": 11.7, "unit": "nM"}, {"measurement": "apparent KD of MS2 coat protein", "setting": "input ligand: none", "result": 15, "unit": "nM"}]}, {"sequence": "AGUACUAACACGUAAGUGUUAGUACUAUAAGCUUGUGUUACAUGAGGAUCACCCAUGUCCUCAUAAGCUCGUCUUAA [Mat - Sensor v3 - Turn-off var 2 - D71] (puzzle: Sensor v3, turn-off variant 2)", "values": [{"measurement": "apparent KD of MS2 coat protein", "setting": "[1]", "result": 34.3, "unit": "nM"}, {"measurement": "apparent KD of MS2 coat protein", "setting": "[2]", "result": 132, "unit": "nM"}, {"measurement": "apparent KD of MS2 coat protein", "setting": "[3]", "result": 39.4, "unit": "nM"}]}, {"sequence": "AAAUUAGCAAGUAGGUCCGACAUGAGGAUCACCCAUGUUAUCUGAAAUAACGCUGCAUGAUUGUGCGCUCGUCUUAG [Sensor-V1 #8] (Eterna round: R97, puzzle: Sensor, turn-off variant 1)", "values": [{"measurement": "apparent KD of MS2 coat protein", "setting": "input ligand: FMN 200 uM", "result": 69.1, "unit": "nM"}, {"measurement": "apparent KD of MS2 coat protein", "setting": "input ligand: none", "result": 73.1, "unit": "nM"}]}, {"sequence": "CGUACUGAAGUCAGGAUAUUGUCUCGGAUACGAAACAAGAAGGGACAUGAGGAUCACCCAUGUAGACAGUACGA [Malc #30 mod 3] (puzzle: Brourd's mod of Exclusion 4)", "values": [{"measurement": "apparent KD of MS2 coat protein", "setting": "[1]", "result": 19.3, "unit": "nM"}, {"measurement": "apparent KD of MS2 coat protein", "setting": "[2]", "result": 20.5, "unit": "nM"}, {"measurement": "apparent KD of MS2 coat protein", "setting": "[3]", "result": 24.9, "unit": "nM"}]}, {"sequence": "ACCUCACAUGAGGAUCACCCAUGUCAGGAUAUCUAAUGUAGUCGCGUUCCCGACGCUAAGAGAAGGGACGUUAA [EX1 #35] (Eterna round: R97, puzzle: Exclusion 1)", "values": [{"measurement": "apparent KD of MS2 coat protein", "setting": "input ligand: FMN 200 uM", "result": 14.6, "unit": "nM"}, {"measurement": "apparent KD of MS2 coat protein", "setting": "input ligand: none", "result": 16.1, "unit": "nM"}]}, {"sequence": "AGCUGUGGCCGAGGAUAUCUAUCUCAUAAAACCGAAAUAUAAUCGGACAUGAGGAUCACCCAUGUAGAGAAGGCGGUCUCAGCA [Eli eng2 - 095] (Eterna round: R96, puzzle: Exclusion NG 2)", "values": [{"measurement": "apparent KD of MS2 coat protein", "setting": "[4]", "result": 20.1, "unit": "nM"}]}, {"sequence": "CUGCUCCGUGUAGGAUAUGCAUACUCCCACUAUGCAGAAGGACAUGAGGAUCACCCAUGUAUGUUAUUAUCACGUGUAGCGUCC [Design 17] (Eterna round: R96, puzzle: Exclusion NG 1)", "values": [{"measurement": "apparent KD of MS2 coat protein", "setting": "input ligand: FMN 200 uM", "result": 21.1, "unit": "nM"}, {"measurement": "apparent KD of MS2 coat protein", "setting": "[4]", "result": 14.2, "unit": "nM"}, {"measurement": "apparent KD of MS2 coat protein", "setting": "input ligand: none", "result": 21.4, "unit": "nM"}]}, {"sequence": "UUCAGACAUGAGGAUCACCCAUGUGAGGAUAUGAUGCAGCAGUGGUCUACGCUGUGCAUCAGAAGGCACAUGUG (puzzle: Exclusion 1)", "values": [{"measurement": "apparent KD of MS2 coat protein", "setting": "[2]", "result": 99.6, "unit": "nM"}]}, {"sequence": "AGUUGUUGCGUAGGAUAUGAGGAUCACCCAUAGUAGGAUAACGAAAGUGAAGGACUGAGGAUUACCCAGAAGGACGUGAUGACA [pwkr exNG2 2xF5 2xFMN.6] (Eterna round: R96, puzzle: Exclusion NG 2)", "values": [{"measurement": "apparent KD of MS2 coat protein", "setting": "input ligand: FMN 200 uM", "result": 602, "unit": "nM"}, {"measurement": "apparent KD of MS2 coat protein", "setting": "[4]", "result": 234, "unit": "nM"}, {"measurement": "apparent KD of MS2 coat protein", "setting": "input ligand: none", "result": 193, "unit": "nM"}]}, {"sequence": "CUGUAACGAGCGUGAGCCGACAUGAGGAUCACCCAUGUGCUCGUCUUAUAACGUACUGUCACGUUAGUGAUAGUGCG [Sensor v3, turn-off variant 1 (MOD of Eli's v1-13 v.2)] (puzzle: Sensor v3, turn-off variant 1)", "values": [{"measurement": "apparent KD of MS2 coat protein", "setting": "[1]", "result": 45.9, "unit": "nM"}, {"measurement": "apparent KD of MS2 coat protein", "setting": "[2]", "result": 74.7, "unit": "nM"}, {"measurement": "apparent KD of MS2 coat protein", "setting": "[3]", "result": 37.3, "unit": "nM"}]}]}
